The Immune Epitope Database (IEDB)

Target: HLA-A*02:01
Experiment: IEDB peptide-MHC binding, purified MHC/competitive/radioactivity; ≥ and ≤ were set here for values at or beyond the usual limits of such assays
Details: source organism: Human alphaherpesvirus 1

Sequence | IC50
TLLRLACEV | 65 nM
FWMSPVFNL | 96 nM
VLDCVVTGA | 973 nM
RLSPFPALV | 60 nM
SLNARGLLV | 145 nM
FLRYHCPGL | 188 nM
VLADAINGL | 86 nM
AVLADFSLV | 134 nM
LLANNPPPV | 24 nM
ALAAIENYV | 2.7 nM
FAASANFFL | 142 nM
LLPAVQCAV | 63 nM
SLLWLGAGV | 54 nM
FLLKQFHAA | 53 nM
TMLEDHEFV | 118 nM
ALMGAVTSL | 4.2 nM
ILFSYDELV | 5.6 nM
RLDSLDLTL | 101 nM
ITMGMPYAV | 23 nM
LLLALRHPA | 600 nM
VLAAVLLGA | 52 nM
AVFGVVAIV | 250 nM
LLLVRAYWL | 63 nM

Sequence | IC50
YTFWRLDLV | 30 nM
FLCTADAAV | 3 nM
RMWAWIHGL | 61 nM
FLGDDPSPA | 13 nM
GLLRVGADT | 23900 nM
ILMILIEGI | 12 nM
VLWSLLWLG | 1.4 nM
LLSGLPTYA | 177 nM
KSMDDDTYV | 689 nM
DLAEWVPRV | 4.3 nM
IVYLCPVLV | 137 nM
ALLEACLRV | 6.6 nM
CLLCNLLLV | 60 nM
GLAVVLWSL | 17 nM
RLTEDDFGL | 77 nM
IILTLIPRL | 127 nM
ALHTALATV | 16 nM
FILDNPGFV | 11 nM
GLFQPFMFV | 37 nM
SMDDDTYVA | 546 nM
MLRDRWSLV | 311 nM
LLAFDTQPV | 9.3 nM
IIPFLLVLV | 55 nM

Sequence | IC50
KMDIDVEYL | 148 nM
KLMARRAQV | 795 nM
KMNQTLLFL | 907 nM
IAPNASLGV | 110 nM
YILNKPVFI | 52 nM
GVVIIAALV | 1080 nM
QLQAAIFHA | 697 nM
GLVFRFSEV | 262 nM
ALYYSVENV | 38 nM
GLVLVWYTV | 66 nM
YLCSLAVVL | 17 nM
RLLEVMDSL | 144 nM
FLTTPVPSL | 111 nM
ILMHATYFL | 1.2 nM
SLLLVVEGV | 8.8 nM
SPGGFVQFV | 450 nM
FALDRPCLV | 76 nM
ALDHYDCLI | 180 nM
GQAAALTDL | 2300 nM
FLYLAFVAL | 1970 nM
YIFSYDAYT | 310 nM
GLFQEAYPL | 5.4 nM
LMHATYFLA | 96 nM

Sequence | IC50
SQTQPPAPV | 781 nM
HLCRYVALL | 200 nM
HMFCDPMCA | 796 nM
KMSYPQFLA | 1400 nM
VLGCDAALV | 521 nM
LLGGVMAAV | 25 nM
RLTGYPAGI | 1100 nM
YLLNYAGRI | 194 nM
LLLAGTPAV | 17 nM
YLGAFLSVL | 16 nM
QLFPGLAAL | 16 nM
VLNTLMFMV | 14 nM
FTINIAAYL | 123 nM
RLQFGPPPV | 11 nM
YVLNSQIAV | 121 nM
ALAVFQPAV | 1.6 nM
AVLAFVALI | 107 nM
RLPPHTQPV | 31 nM
FLEDLSYPA | 0.64 nM
WLLQITVLL | 130 nM
TLRGLFFSV | 94 nM
MMLRDRWSL | 14 nM
RLCLDVPPV | 8.5 nM

Sequence | IC50
VMAAVCLQI | 15 nM
NTLMFMVYV | 69 nM
GLLFVLLVA | 1060 nM
LLMACAFWC | 974 nM
GMLICLTVL | 548 nM
ALYACVLAA | 5.6 nM
AMDSDLGSL | 978 nM
YLDEAGGHL | 23 nM
RLLGFADTV | 27 nM
YLSRTQRLA | 110 nM
FVALIPPTL | 704 nM
ALSPVLPPM | 30 nM
RLQHLVAEI | 142 nM
TLLDFAHGL | 10 nM
ILYSVLQHL | 55 nM
FVVYNLTGV | 2.2 nM
LVLNMVYSI | 94 nM
GPGDPDVYL | 30600 nM
LLMVAVIMAI | 9 nM
SVYALGFGV | 1300 nM
FVYTPSPYV | 129 nM
ALQTDNYTL | 29 nM
HMGEVPPRL | 1740 nM

Sequence | IC50
FMTALVLSL | 0.8 nM
LLAENLPGL | 1.1 nM
FLGSCICFI | 12 nM
FLVPGTHVA | 45 nM
LLMNELLRV | 8.4 nM
LLDTGPFSA | 93 nM
MLLAFMTLV | 5.7 nM
GLFFSVYAL | 23 nM
LLYNGAYHL | 7.6 nM
FLGAGALAV | 80 nM
FITTMAPRV | 32 nM
GLFVSLPVV | 4.7 nM
YLLGRPPNA | 12 nM
WLETELVFV | 85 nM
VLGAAIWWV | 73 nM
RLASLLTYA | 7.9 nM
MLLATREYV | 46 nM
YLACLAAVI | 61 nM
